Data on one molecule can be found in patent US6548639 (BIOSTAPRO, dated 2003).

In the test the target is T1, MAL-Sbi (aa 33-436, SEQ ID NO:3) (Staphylococcus aureus strain 8325-4, UniProt A6QJQ7 33-436).
T1 construct: Expressed in E. coli from pMAL-c2 (BamHI-SalI insert), purified on amylose resin and then on IgG-Sepharose; also called MAL-fusion of protein Sbi; mature full length protein; not shown: its limits and the v
As to the kind of experiment: blot of the purified proteins overlaid with MAL-Sbi, detected with HRP-labelled chicken anti-Sbi.

B1: bovine apolipoprotein H (other)
chain: GRTCPKPDELPFSTVVPLKRTYEPGEQIVFSCQPGYVSRGGIRRFTCPLTGLWPINTLKCMPRVCPFAGILENGTVRYTTFEYPNTISFSCHTGFYLKGASSAKCTEEGKWSPDLPVCAPITCPPPPIPKFASLSVYKPLAGNNSFYGSKAVFKCLPHHAMFGNDTVTCTEHGNWTQLPECREVRCPFPSRPDNGFVNHPANPVLYYKDTATFGCHETYSLDGPEEVECSKFGNWSAQPSCKASCKLSIKRATVIYEGERVAIQNKFKNGMLHGQKVSFFCKHKEKKCSYTEDAQCIDGTIEIPKCFKEHSSLAFWKTDASDVKPC
notes: mature; Serum protein; also called β2-glycoprotein I
Regarding B1, the binding result is reported as “binds”.
